Holding throughout (assay): model substrate hydrolysis, Michaelis-Menten fit
Holding throughout (format): biochemical, Dysgonomonas mossii
Conditions in all cases: 37 °C

Substrate in series [1]: CC(=O)Oc1ccc2c(C)cc(=O)oc2c1
The text has this: (§1) model substrate hydrolysis, Michaelis-Menten fit on DmCE1B

Substrate in series [2]: COC(=O)/C=C/c1cc(OC)c(O)c(OC)c1
From the text: as §1

Substrate in series [3]: CC(=O)Oc1ccc2c(C)cc(=O)oc2c1
The text has this: model substrate hydrolysis, Michaelis-Menten fit on DmCE1B_ct
The source holds these as a separate data set.

Substrate in series [4]: CC(=O)Oc1ccc2c(C)cc(=O)oc2c1
An excerpt:
(§2) model substrate hydrolysis, Michaelis-Menten fit on DmCE6A
This is another data set of the same source.

Substrate in series [5]: CC(=O)Oc1ccc([N+](=O)[O-])cc1
From the text: as §2

Substrate in series [6]: CC(=O)Oc1ccc2c(C)cc(=O)oc2c1
The text has this: (§3) model substrate hydrolysis, Michaelis-Menten fit on DmCE1B_nt
This is another data set of the same source.

Substrate in series [7]: COC(=O)/C=C/c1ccc(O)c(OC)c1
From the text: as §3

Substrate in series [8]: COC(=O)/C=C/c1cc(OC)c(O)c(OC)c1
From the text: as §3
This is another data set of the same source.

Substrate in series [9]: COC(=O)/C=C/c1ccc(O)cc1
From the text: as §3

Substrate in series [10]: CC(=O)Oc1ccc2c(C)cc(=O)oc2c1
An excerpt: (§4) model substrate hydrolysis, Michaelis-Menten fit on DmCE1A
This is another data set of the same source.

Substrate in series [11]: COC(=O)/C=C/c1cc(OC)c(O)c(OC)c1
From the text: as §4
The source holds these as a separate data set.

Substrate in series [12]: CC(=O)Oc1ccc([N+](=O)[O-])cc1
From the text: as §4
This is another data set of the same source.

A word on the Km: it is the concentration of substrate that gives half-maximal velocity. As a reminder, the kcat is the maximal rate divided by the concentration of active sites. The term kcat/Km denotes the second-order rate constant that governs catalysis at low substrate concentration.

B1: DmCE1B (Dysgonomonas mossii DSM 22836) (protein)
chain: ISQNYKSVPNGYDIPRTGISHGQIDTVTYYSKTVDTNRKALVYTPPGYSKNKQYPVLYLLHGIGGDEKEWFSHGQPQVILDNLYADKKIVPMIVVLPNGRAMKDDRAIGNIMEAPKVEAFATFEKDLLNDLIPFIQKTYPVLKNQENRALAGLSMGGGQSLNFGLGNLDIFAWVGGFSSAPNTKTPEVLVPNPDDAKKKLKLLWISCGDKDGLLSFSKRTHDYLAKNQVPHVYQVIPNGYHDFNIWKQNLYMFSQLLFKPVTADLIEQYSYIPEEAEVGISASTNIPGAQYPQILSGNRVLFRIKAPDAKRVQVDLGKKYDMVREEEGSWAITTDPIVEGFHYYSILIDGVAVCDPASRTFYGMSRMASGIEIPEEGVDYYNLKNVPHGQIRQIRYFSDVTKAWRRAFVYTPAGYDANTSQRYPVLYLQHGGGEDETGWPNQGKMDAIIDNLIAEGKAKPMIVVMDNGYAVDPSASSANSPQGLRGLFQNSALEKVFINEIIPLVDKEFRTIADRDHRAMAGLSMGGFQAFQIAMTNLDKFAYVGGFSGGGIIEQGGDFSKMYNNVWSDVDTFNKRVKLIYLSIGTAEPTNMYQTVNNFHKEFEKAGIKHVYYESPGTSHEWLTWRRSLNQFAELLFK
notes: full length, signal peptide removed; CE1-CBM48-CE1; dimer in solution; pET28a-TEVc, IMAC purified from E. coli BL21(DE3)
For the protein B1, in series [1], the Km was determined as 370 ± 60 µM, the turnover number (kcat) was 870 ± 3 s⁻¹ and the kcat/Km worked out at 2.3e+06 ± 400000 M⁻¹ s⁻¹. For the same protein, in series [2], the Km turned out to be 360 ± 100 µM, the kcat came out at 5 ± 0.83 s⁻¹ and the kcat/Km was found to be 14000 ± 4500 M⁻¹ s⁻¹.

B2: DmCE1B_ct (Dysgonomonas mossii DSM 22836) (protein)
chain: AEVGISASTNIPGAQYPQILSGNRVLFRIKAPDAKRVQVDLGKKYDMVREEEGSWAITTDPIVEGFHYYSILIDGVAVCDPASRTFYGMSRMASGIEIPEEGVDYYNLKNVPHGQIRQIRYFSDVTKAWRRAFVYTPAGYDANTSQRYPVLYLQHGGGEDETGWPNQGKMDAIIDNLIAEGKAKPMIVVMDNGYAVDPSASSANSPQGLRGLFQNSALEKVFINEIIPLVDKEFRTIADRDHRAMAGLSMGGFQAFQIAMTNLDKFAYVGGFSGGGIIEQGGDFSKMYNNVWSDVDTFNKRVKLIYLSIGTAEPTNMYQTVNNFHKEFEKAGIKHVYYESPGTSHEWLTWRRSLNQFAELLFK
notes: dimer; IMAC purified from E. coli BL21(DE3)
In the case of B2, in series [3], the Km was found to be 420 ± 100 µM, the kcat was 11 ± 0.71 s⁻¹ and the specificity constant (kcat/Km) amounted to 26000 ± 6600 M⁻¹ s⁻¹.

B3: DmCE6A (Dysgonomonas mossii DSM 22836) (protein)
chain: QDKFHVFLCFGQSNMEGHAKIEAQDTIDIDGRFMMLQTVDCPELGRFKGNWYKAIPPLARCHTGLSPADYFGRTMVANLPSDTKVGVINVAVGGCRIELFDKENFQSYVDQSPEWLKNMVNEYDGNPYVRLIEMAKLAQSQGGVIKGILLHQGESNNGETDWPEKVRKVYDNILKDLNFEPNSIPLLAGELLDEEQYGACANMNLIINTLPNVIPNAHVISSKGCEGVKDRLHFSAAGYRTLGSRYAEKMLQLYNENSLKK
notes: signal peptide removed; single CE6 domain; pET28a-TEVc, IMAC purified from E. coli BL21(DE3)
As for B3, the Michaelis constant (Km) in series [4] came to 29 ± 3 µM. In series [5], the Km was 180 ± 10 µM, the kcat was found to be 59 ± 0.87 s⁻¹ and the kcat/Km was determined as 320000 ± 20000 M⁻¹ s⁻¹.

B4: DmCE1B_nt (Dysgonomonas mossii DSM 22836) (protein)
chain: ISQNYKSVPNGYDIPRTGISHGQIDTVTYYSKTVDTNRKALVYTPPGYSKNKQYPVLYLLHGIGGDEKEWFSHGQPQVILDNLYADKKIVPMIVVLPNGRAMKDDRAIGNIMEAPKVEAFATFEKDLLNDLIPFIQKTYPVLKNQENRALAGLSMGGGQSLNFGLGNLDIFAWVGGFSSAPNTKTPEVLVPNPDDAKKKLKLLWISCGDKDGLLSFSKRTHDYLAKNQVPHVYQVIPNGYHDFNIWKQNLYMFSQLLFKPVTADLIEQYSYIPEEAEVGISASTNIPGAQYPQILSGNRVLFRIKAPDAKRVQVDLGKKYDMVREEEGSWAITTDPIVEGFHYYSILIDGVAVCDPASRTFYGMSRMASGIEIPE
notes: N-terminal CE1 domain + CBM48 (CBM48 is residues 294-393), signal peptide removed; IMAC purified from E. coli BL21(DE3)
With B4, the Km came out at 300 ± 40 µM in series [6], 160 ± 30 µM in series [7], 290 ± 70 µM in [8] and 310 ± 90 µM in series [9]. Further, the turnover number (kcat) came to 630 ± 22 s⁻¹ in series [6], 1.8 ± 0.13 s⁻¹ in series [7], 2.7 ± 0.34 s⁻¹ in series [8] and 0.61 ± 0.1 s⁻¹ in series [9]. Also, the catalytic efficiency (kcat/Km) in series [6] is 2.1e+06 ± 300000 M⁻¹ s⁻¹; in [7], 11000 ± 2000 M⁻¹ s⁻¹; in series [8], 9200 ± 2400 M⁻¹ s⁻¹; in series [9] it was 2000 ± 700 M⁻¹ s⁻¹.

B5: DmCE1A (Dysgonomonas mossii DSM 22836) (protein)
chain: QDLEGSISSEYNIPEGQYPIVNKDLSATFRIQAPSAQSMQVDICGKKYPMTKDAAGIWEATTDPLVVGFHYYFLLIDGVSVVDPASQTFFGCGRMASGIEIPEPRAESAYYSYQKDIPHGQVRECYYFSKVEGKQRRCFLYTPAEYETNPTKRYPVLYLQHGMGEDETGWSRQGKMAFILDNQISEKKCVPMIVVMDYGNCGYIHGTKKGESQKEFGALFTPILINDIIPYIDSNFRTLSDRDNRAMAGLSWGGHQAFETTLNNIDKFSHIGAFSGALFFLKEDNLKKAYNGVFAQPNVFNKKVHTLFLGMGSEEGMGSKRISEFLKANGINNTYYESAGTHHEWLTWRRCLNQFLPLIFKQN
notes: signal peptide removed; N-terminal CBM48 + CE1 domain; pET28a-TEVc, IMAC purified from E. coli BL21(DE3)
With B5, in [10], the Km was found to be 550 ± 60 µM, the catalytic constant (kcat) was determined as 38.6 ± 1.26 s⁻¹ and the kcat/Km is 70000 ± 8000 M⁻¹ s⁻¹. Besides, in series [11], the Km is 180 ± 40 µM, the kcat is 0.13 ± 0.01 s⁻¹ and the kcat/Km was determined as 700 ± 200 M⁻¹ s⁻¹. In [12], the Km was 4400 ± 670 µM, the kcat worked out at 1.03 ± 0.07 s⁻¹ and the catalytic efficiency (kcat/Km) stood at 230 ± 40 M⁻¹ s⁻¹.

The values are drawn from paper PMC8040265, “A polysaccharide utilization locus from the gut bacterium Dysgonomonas mossii encodes functionally distinct carbohydrate esterases” (The Journal of Biological Chemistry, 2021).
